The results in this text go back to patent publication US6348327.

The target of data set [1] is T1, prorelaxin mutant Rx 2.4, P04090.
T1 chain: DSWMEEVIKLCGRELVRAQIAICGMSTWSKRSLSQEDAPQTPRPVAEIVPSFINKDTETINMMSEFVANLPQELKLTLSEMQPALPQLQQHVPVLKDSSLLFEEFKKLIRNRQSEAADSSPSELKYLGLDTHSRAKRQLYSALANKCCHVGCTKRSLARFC

The target in data set [2] is T2, prorelaxin mutant Rx 3.2, P04090.
T2 chain: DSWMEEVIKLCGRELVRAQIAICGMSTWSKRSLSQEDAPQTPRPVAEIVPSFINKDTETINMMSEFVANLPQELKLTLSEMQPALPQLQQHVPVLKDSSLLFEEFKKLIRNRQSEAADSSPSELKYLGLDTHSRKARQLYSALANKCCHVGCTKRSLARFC

Data set [3] deals with T3, prorelaxin mutant Rx 4.3, P04090.
T3 chain: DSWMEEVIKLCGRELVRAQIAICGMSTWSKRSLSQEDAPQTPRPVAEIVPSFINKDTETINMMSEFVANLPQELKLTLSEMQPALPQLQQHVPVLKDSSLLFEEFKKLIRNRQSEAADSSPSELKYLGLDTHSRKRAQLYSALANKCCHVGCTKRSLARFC

Data set [4] addresses T4, prorelaxin mutant Rx8.6, P04090.
T4 chain: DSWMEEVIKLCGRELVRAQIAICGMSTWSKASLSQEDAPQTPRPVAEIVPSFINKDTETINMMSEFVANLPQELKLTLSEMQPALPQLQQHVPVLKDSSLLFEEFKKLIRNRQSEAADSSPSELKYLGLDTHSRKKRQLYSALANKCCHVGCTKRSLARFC

The target of data set [5] is T5, prorelaxin mutant Rx 1.4, P04090.
T5 chain: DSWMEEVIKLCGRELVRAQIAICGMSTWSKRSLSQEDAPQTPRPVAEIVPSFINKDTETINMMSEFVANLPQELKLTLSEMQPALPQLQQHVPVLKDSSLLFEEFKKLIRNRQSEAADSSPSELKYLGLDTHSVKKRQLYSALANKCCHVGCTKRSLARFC

For data set [6], the target named is T6, prorelaxin mutant Rx7.2, P04090.
T6 chain: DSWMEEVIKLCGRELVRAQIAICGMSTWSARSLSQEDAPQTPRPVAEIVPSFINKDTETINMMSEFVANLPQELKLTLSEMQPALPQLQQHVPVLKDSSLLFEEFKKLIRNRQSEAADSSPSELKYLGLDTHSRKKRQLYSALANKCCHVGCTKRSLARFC

Data set [7] addresses T7, human H2 prorelaxin (wild-type), P04090.
T7 chain: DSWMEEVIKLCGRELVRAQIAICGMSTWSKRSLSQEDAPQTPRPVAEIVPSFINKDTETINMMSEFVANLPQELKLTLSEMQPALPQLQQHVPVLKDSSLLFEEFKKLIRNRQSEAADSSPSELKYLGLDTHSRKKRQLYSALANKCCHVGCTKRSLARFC

B1: murine prohormone convertase 1 (protein)
chain: SVQKDSALDLFNDPMWNQQWYLQDTRMTAALPKLDLHVIPVWEKGITGKGVVITVLDDGLEWNHTDIYANYDPEASYDFNDNDHDPFPRYDLTNENKHGTRCAGEIAMQANNHKCGVGVAYNSKVGGIRMLDGIVTDAIEASSIGFNPGHVDIYSASWGPNDDGKTVEGPGRLAQKAFEYGVKQGRQGKGSIFVWASGNGGRQGDNCDCDGYTDSIYTISISSASQQGLSPWYAEKCSSTLATSYSSGDYTDQRITSADLHNDCTETHTGTSASAPLAAGIFALALEANPNLTWRDMQHLVVWTSEYDPLASNPGWKKNGAGLMVNSRFGFGLLNAKALVDLADPRTWRNVPEKKECVVKDNNFEPRALKANGEVIVEIPTRACEGQENAIKSLEHVQFEATIEYSRRGDLHVTLTSAVGTSTVLLAERERDTSPNGFKNWDFMSVHTWGENPVGTWTLKITDMSGRMQNEGRIVNWKLILHGTSSQPEHMKQPRVYTSYNTVQNDRRGVEKMVNVVEKRPTQKSLNGNLLVPKNSSSSNVEGRRDEQVQGTPSKAMLRLLQSAFSKNALSKQSPKKSPSAKLSIPYESFYEALEKLNKPSKLEGSEDSLYSDYVDVFYNTKPYKHRDDRLLQALMDILNEEN
As for B1, the “processing of prorelaxin mutant by murine prohormone convertase 1” value is “Mutants 1.4 and 2.4 are processed the same as wild-type” in data set [1]; “mutant 3.2 is partially processed” in data set [2]; “Mutant 4.3 doesn't appear to be processed” in data set [3]; “mutants 7.2 and 8.6 are not processed” in data set [4]; “Mutants 1.4 and 2.4 are processed the same as wild-type” in data set [5]; “mutants 7.2 and 8.6 are not processed” in data set [6].

B2: murine prohormone convertase 2 (protein)
chain: GYRDINEIDINMNDPLFTKQWYLFNTGQADGTPGLDLNVAEAWELGYTGKGVTIGIMDDGIDYLHPDLAYNYNADASYDFSSNDPYPYPRYTDDWFNSHGTRCAGEVSAAASNNICGVGVAYNSKVAGIRMLDQPFMTDIIEASSISHMPQLIDIYSASWGPTDNGKTVDGPRELTLQAMADGVNKGRGGKGSIYVWASGDGGSYDDCNCDGYASSMWTISINSAINDGRTALYDESCSSTLASTFSNGRKRNPEAGVATTDLYGNCTLRHSGTSAAAPEAAGVFALALEANLDLTWRDMQHLTVLTSKRNQLHDEVHQWRRNGVGLEFNHLFGYGVLDAGAMVKMAKDWKTVPERFHCVGGSVQNPEKIPPTGKLVLTLKTNACEGKENFVRYLEHVQAVITVNATRRGDLNINMTSPMGTKSILLSRRPRDDDSKVGFDKWPFMTTHTWGEDARGTWTLELGFVGSAPQKGLLKEWTLMLHGTQSAPYIDQVVRDYQSKLAMSKKQELEEELDEAVERSLQSILRKN
Regarding B2, the “cleavage of prorelaxin mutant by murine prohormone convertase 2” value in data set [1] is reported as “does not cleave any of the prorelaxin mutants with the exception of 4.3”; in data set [2], “does not cleave any of the prorelaxin mutants with the exception of 4.3”; in data set [3], “with the exception of 4.3 where there is some processing”; in data set [4], “does not cleave any of the prorelaxin mutants with the exception of 4.3”; in data set [5], “does not cleave any of the prorelaxin mutants with the exception of 4.3”; in data set [6], “Mutant 7.2 is not cleaved by murine prohormone convertase 2”. Moreover, in data set [7], the “cleavage of prorelaxin by murine prohormone convertase 2” value is “Murine prohormone convertase 2 does not cleave the wildtype prorelaxin”.
